Measurements taken from patent US20230080534A1, “SEMG2 ANTIBODY AND USE THEREOF” (SHANGHAI BIOTROY BIOTECHNIQUE CO., LTD., priority 2020, published 2023).

Legend:
NCM460 cells = assay: Tumor cell killing by activated PBMC; assay type: cell-based, human; conditions: NCM460, SEMG2-negative
Experimental: (§1) To test the above hypothesis, the effects of different epitope-specific antibodies on tumor cell killing by activated PBMC were compared. Specifically, A375 human melanoma and LOVO human colorectal cancer cells highly expressing SEMG2 were seeded in 96-well plate. Human peripheral blood mononuclear cells (PBMC; #70025, Stem Cell) were activated with 100 ng/mL of CD3 antibody, 100 ng/mL, of CD28 antibody, and 1.0 ng/mL of IL2 (#317303; #302913; #589102, BioLegend), respectively, and co-cultured with the above tumor cells at a ratio of 10:1 in presence of fluorescent caspase-3/7 substrate (#4440, Essen Bioscience). After 1.0 hours, cells were observed under fluorescence microscope.
(§2) To verify the above hypothesis, tumor cells with high SEMG2 expression (A375, LOVO) and SEMG2-negative tumor cells (DLD1, NCM460 and NCI-H1975) were selected. Different antibodies (irrelevant mouse IgG antibodies, MM02 or MM05 antibodies) were added during the PBMC killing experiments for the tumor cells.

NCI-H1975 cells = assay: Tumor cell killing by activated PBMC; assay type: cell-based, human; conditions: NCI-H1975, SEMG2-negative
Experimental: as §1, §2

DLD1 cells = assay: Tumor cell killing by activated PBMC; assay type: cell-based, human; conditions: DLD1, SEMG2-negative
Experimental: as §1, §2

[1] = tested on: SEMG2(497-509) polypeptide and glycine mutation scanning sequence group; assay: ELISA epitope mapping with glycine mutation scanning sequence group; assay type: binding, human
From the text: To further precisely define the exact epitopes (specific to the level of single amino acid) to which blocking antibodies MM02, MM05, MM07, MM08, MM13, MM14 bind, corresponding ELISA analysis method was established. […] Anti-mouse or anti-rabbit secondary antibodies were then used to detect the corresponding bound antibodies. […] Meanwhile, the different amino acids in the SEMG2(497-509) sequence had different degrees of influence on the binding of similar blocking antibodies (MM02, MM05, MM07, MM08, MM13, MM14) after substitution by glycine. […] The results precisely define the epitope amino acids associated with MM02 and similar antibodies (i.e., antibodies that block the binding between SEMG2 and CD27), and the contribution of each amino acid to the binding.

[2] = tested on: LOVO human colorectal cancer cells; assay: Tumor cell killing by activated PBMC, caspase-3/7 apoptosis; assay type: cell-based; conditions: SEMG2-positive, co-culture with activated PBMC 10:1
Experimental: as §1, §2
(§3) To verify the effect of the human antibodies on the function of activated PBMC on tumor cell killing, A375 and LOVO cells were co-cultured with activated PBMC, and H88-93, H88-96, or H88-67 antibody was added at the same time, and the apoptosis ratio of tumor cells were detected.

[3] = tested on: A375 human melanoma cells; assay: as above; assay type: cell-based; conditions: A375, SEMG2-positive, co-culture with activated PBMC 10:1
Experimental: as §1, §2, §3

[4] = tested on: human malignant melanoma A375 cells; assay: Xenograft model of PBMC-HIS model in human malignant melanoma A375 cells; assay type: in vivo, mouse; conditions: NPSG mice with PBMC and A375, 5 mg/kg intraperitoneally three times a week
Experimental: 30 male NPSG mouse models aged 6-8 week were weighed. A375 cells (with confirmed endogenous expression of SEMG2) were cultured in vitro to obtain 1.8×10^8 cells. After 30 mice were inoculated with PBMC, A375 tumor cells were inoculated on the 3rd day. After that, the proportion of hCD45+ cells in mouse blood and the body weight were measured once a week. After inoculation, tumor volume was measured once a week, and the proportion of hCD45+ cells in mouse blood was measured when the average tumor volume reached about 40-80 mm^3. Mice were grouped randomly based on tumor volume and the proportion of hCD45+ cells in mouse blood, and the administration was started immediately. The date began the administration was considered day 0. […] After the tumor growth, the body weight and tumor volume were measured 3 times a week, and the relative count of hCD45+ cells in mouse blood was monitored by flow cytometry 3 times a week. When the tumor volume reached the end point, blood was collected and the same indexed were detected, and the experiment was ended. […] Measurement of tumor volume: after inoculation and before grouping, when tumors were visible, the tumor volume of experimental animals was measured once a week. After inoculation and grouping, the tumor volume of animals in the experiment was measured twice a week. The tumor volume was measured by a bidirectional measurement method. […]

B1: MM02: mouse monoclonal antibody against SEMG2(497-509), mIgG2b kappa, VH SEQ ID NO:35, VL SEQ ID NO:42 (antibody, V domains shown)
VH: QIQLVQSGPEVKKPGETVRISCKASGYTLTTAGIQWVQKMPGKGLKWIGWINTHSGVPEYAEDFKGRFAFFLETSASTAYLQISNLKNEDTATYFCARLGLLGYWGQGTTLTVSS
VL: DILLTQSPAILSVSPGERVSFSCRASQSIGTTIHWYQQRTNGSPRLLIKYASESISGIPSRFSGSGSGTDFTLSINSVESEDIADYYCQQSNSWPWTFGGGTKLEIKRA
modifications: UNSURE (1)..(115) VH; UNSURE (1)..(109) VL
killing by activated PBMC (NCM460 cells): no obvious impact
killing by activated PBMC (NCI-H1975 cells): no obvious impact
killing by activated PBMC (DLD1 cells): no obvious impact
decrease of antibody binding after glycine substitution ([1]; substitution of amino acids at positions 501 and 506): more than 70%
effect of glycine substitution on antibody binding ([1]; substitution of amino acids at positions 507 and 509): did not significantly affect
apoptosis tumor cell ratio / killing by activated PBMC [2]: significantly increased the killing
apoptosis tumor cell ratio / killing by activated PBMC [3]: significantly increased the killing

B2: MM05: mouse monoclonal antibody against SEMG2(497-509), mIgG1 kappa, VH SEQ ID NO:36, VL SEQ ID NO:43 (antibody, V domains shown)
VH: QVQLQQPGAELVRPGASVKLSCEASGYTFTSYWMNWVKQRPGQGLEWIGMIDPSDSETHYNQMFKDKATLTVDKSSSTAYMQLSSLTSEDSAVYYCARYLGGKEGSFDYWGQGTTLTVSS
VL: DIVMSQSPSSLAVSAGEKVTMSCKSSQSLLNSRTRKNYLAWYQQKPGQSPKLLIYWASTRESGVPDRFTGSGSGTDFTLTISSVQAEDLAVYYCKQSYSLPWTFGGGTKLEIKRA
modifications: UNSURE (1)..(120) VH; UNSURE (1)..(115) VL
killing by activated PBMC (NCM460 cells): no obvious impact
killing by activated PBMC (NCI-H1975 cells): no obvious impact
killing by activated PBMC (DLD1 cells): no obvious impact
growth of tumor in mice [4]: significantly inhibited the growth of tumor
apoptosis tumor cell ratio / killing by activated PBMC [2]: significantly increased the killing
apoptosis tumor cell ratio / killing by activated PBMC [3]: significantly increased the killing
